The text below walks through data of patent US20040248785A1.

Experiment [1] addresses low density lipoprotein receptor-related protein / alpha2-macroglobulin receptor (LRP), isolated from human placenta (human) (UniProt Q07954). Put plainly: homologous displacement on LRP-coated wells.
For experiment [2] the target is unchanged. The experiment can be described thus: homologous displacement of 125I-fVIII (1 nM) by unlabeled fVIII on LRP-coated wells, single class of sites, LIGAND.
Experiment [3] shares this target. The experiment can be described thus: solid-phase homologous ligand displacement: 125I-fVIII (1 nM) on LRP-coated wells, 1 h at 37 C, rising unlabeled fVIII.

Chain of low density lipoprotein receptor-related protein / alpha2-macroglobulin receptor (LRP), isolated from human placenta (human) (Q07954 20-4544): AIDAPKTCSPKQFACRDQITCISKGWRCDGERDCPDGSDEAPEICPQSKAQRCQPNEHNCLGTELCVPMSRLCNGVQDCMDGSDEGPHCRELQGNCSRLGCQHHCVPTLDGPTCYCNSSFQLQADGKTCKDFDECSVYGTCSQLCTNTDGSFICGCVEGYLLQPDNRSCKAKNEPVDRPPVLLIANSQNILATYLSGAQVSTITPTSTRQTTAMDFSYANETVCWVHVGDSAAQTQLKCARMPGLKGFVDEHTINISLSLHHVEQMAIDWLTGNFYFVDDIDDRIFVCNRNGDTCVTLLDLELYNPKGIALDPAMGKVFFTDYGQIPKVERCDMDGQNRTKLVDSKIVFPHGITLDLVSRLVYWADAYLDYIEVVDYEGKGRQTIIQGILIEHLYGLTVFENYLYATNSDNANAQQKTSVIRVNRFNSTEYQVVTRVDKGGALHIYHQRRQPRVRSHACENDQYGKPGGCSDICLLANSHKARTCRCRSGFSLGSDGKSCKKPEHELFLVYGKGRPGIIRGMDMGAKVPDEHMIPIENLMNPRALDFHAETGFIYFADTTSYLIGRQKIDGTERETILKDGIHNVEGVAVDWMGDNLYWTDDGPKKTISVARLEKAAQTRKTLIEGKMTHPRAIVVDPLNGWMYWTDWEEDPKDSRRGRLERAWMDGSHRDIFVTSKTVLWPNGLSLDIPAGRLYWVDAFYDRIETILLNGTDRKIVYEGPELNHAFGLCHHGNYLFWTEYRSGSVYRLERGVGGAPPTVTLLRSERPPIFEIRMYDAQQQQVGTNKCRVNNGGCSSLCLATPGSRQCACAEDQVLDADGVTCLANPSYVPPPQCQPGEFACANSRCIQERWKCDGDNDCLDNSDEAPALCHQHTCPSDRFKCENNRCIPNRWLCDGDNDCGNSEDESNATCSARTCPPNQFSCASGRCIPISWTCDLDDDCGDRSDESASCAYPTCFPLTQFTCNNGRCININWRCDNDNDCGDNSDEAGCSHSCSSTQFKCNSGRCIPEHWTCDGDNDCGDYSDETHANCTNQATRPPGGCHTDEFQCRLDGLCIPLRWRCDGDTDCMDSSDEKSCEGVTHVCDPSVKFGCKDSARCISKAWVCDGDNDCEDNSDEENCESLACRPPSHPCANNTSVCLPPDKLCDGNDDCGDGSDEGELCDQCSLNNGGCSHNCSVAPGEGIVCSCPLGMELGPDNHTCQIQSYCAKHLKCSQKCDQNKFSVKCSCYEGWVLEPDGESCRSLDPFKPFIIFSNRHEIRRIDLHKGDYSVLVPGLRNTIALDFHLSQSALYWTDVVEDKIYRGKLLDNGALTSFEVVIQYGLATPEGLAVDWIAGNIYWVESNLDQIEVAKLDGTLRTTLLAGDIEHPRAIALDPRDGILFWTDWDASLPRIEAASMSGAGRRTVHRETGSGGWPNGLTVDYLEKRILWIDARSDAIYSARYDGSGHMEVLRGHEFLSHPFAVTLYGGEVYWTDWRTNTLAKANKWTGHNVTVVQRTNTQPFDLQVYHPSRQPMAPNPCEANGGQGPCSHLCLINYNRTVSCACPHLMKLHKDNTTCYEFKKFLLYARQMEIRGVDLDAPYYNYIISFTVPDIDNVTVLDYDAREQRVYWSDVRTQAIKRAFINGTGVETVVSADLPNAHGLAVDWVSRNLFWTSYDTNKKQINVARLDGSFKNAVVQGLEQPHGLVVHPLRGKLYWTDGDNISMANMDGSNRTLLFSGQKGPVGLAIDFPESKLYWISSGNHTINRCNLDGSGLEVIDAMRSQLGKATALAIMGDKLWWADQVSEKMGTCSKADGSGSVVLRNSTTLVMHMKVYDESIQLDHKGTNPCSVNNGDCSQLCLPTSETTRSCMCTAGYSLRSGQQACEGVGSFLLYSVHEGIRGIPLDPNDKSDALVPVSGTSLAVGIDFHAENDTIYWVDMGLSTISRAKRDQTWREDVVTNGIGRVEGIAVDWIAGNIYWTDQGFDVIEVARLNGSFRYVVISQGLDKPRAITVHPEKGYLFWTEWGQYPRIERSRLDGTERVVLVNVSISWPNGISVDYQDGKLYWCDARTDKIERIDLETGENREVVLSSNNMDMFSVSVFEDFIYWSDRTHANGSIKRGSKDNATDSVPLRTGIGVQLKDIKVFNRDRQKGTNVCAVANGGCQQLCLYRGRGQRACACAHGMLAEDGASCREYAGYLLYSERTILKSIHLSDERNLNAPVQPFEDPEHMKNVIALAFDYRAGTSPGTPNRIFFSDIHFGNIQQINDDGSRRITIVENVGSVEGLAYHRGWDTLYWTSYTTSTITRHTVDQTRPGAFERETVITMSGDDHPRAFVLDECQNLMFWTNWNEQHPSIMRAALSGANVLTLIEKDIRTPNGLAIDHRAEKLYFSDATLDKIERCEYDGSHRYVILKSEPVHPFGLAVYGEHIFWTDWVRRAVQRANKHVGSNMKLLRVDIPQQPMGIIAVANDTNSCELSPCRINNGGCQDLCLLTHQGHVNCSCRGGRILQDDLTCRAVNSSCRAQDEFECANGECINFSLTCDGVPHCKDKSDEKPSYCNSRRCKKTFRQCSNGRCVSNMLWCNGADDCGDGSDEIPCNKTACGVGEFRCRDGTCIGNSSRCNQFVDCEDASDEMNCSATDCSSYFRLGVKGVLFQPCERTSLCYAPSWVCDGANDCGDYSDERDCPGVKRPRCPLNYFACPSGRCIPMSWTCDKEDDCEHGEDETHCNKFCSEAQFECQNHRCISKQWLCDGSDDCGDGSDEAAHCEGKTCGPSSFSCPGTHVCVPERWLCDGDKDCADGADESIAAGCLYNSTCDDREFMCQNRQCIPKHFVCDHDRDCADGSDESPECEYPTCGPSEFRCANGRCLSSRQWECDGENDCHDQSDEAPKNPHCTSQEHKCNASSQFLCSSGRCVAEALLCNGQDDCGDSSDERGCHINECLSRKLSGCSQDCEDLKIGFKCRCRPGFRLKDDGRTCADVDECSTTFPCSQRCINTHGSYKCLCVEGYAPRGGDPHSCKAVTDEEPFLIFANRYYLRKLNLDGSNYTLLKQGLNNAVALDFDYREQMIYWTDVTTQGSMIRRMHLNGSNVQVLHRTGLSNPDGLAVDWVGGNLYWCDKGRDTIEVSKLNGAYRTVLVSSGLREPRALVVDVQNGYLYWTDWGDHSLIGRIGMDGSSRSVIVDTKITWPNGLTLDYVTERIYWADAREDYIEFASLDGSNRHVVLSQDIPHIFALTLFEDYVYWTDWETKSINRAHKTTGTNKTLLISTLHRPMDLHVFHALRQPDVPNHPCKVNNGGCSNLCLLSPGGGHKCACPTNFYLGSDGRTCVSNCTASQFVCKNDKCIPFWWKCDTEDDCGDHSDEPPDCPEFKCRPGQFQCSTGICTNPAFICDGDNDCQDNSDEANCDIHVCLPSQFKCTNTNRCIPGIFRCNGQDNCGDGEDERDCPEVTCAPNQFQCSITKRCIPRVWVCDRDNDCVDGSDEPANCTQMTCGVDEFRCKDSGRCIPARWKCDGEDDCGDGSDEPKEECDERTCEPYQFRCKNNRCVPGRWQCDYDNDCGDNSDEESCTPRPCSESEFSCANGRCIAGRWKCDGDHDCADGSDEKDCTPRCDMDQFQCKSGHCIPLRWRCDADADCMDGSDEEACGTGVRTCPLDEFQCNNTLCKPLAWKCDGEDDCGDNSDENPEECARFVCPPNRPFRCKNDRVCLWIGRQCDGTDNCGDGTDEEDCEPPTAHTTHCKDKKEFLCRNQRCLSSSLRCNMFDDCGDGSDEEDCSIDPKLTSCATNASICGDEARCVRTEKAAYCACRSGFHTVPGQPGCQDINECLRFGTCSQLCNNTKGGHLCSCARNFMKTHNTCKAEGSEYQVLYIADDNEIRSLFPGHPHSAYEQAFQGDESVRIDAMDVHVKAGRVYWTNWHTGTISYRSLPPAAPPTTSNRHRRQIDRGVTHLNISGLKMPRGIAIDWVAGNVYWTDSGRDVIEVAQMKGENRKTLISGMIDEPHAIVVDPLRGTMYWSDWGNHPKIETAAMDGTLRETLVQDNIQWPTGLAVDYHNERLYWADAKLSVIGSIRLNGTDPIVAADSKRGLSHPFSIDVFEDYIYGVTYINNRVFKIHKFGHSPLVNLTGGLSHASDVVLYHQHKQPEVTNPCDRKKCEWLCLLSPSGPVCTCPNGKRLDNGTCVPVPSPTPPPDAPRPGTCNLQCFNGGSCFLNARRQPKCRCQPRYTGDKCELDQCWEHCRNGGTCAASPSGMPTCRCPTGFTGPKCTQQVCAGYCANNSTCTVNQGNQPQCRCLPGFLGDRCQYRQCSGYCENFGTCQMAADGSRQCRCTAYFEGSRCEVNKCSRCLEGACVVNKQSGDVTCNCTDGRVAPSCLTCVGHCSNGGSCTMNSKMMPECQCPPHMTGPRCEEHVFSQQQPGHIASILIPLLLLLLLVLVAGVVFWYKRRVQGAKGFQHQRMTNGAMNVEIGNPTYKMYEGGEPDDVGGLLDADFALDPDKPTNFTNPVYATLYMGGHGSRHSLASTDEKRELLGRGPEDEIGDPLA

“factor VIII (fVIII), purified from therapeutic concentrates of Method M, American Red Cross, P00451 20-1667; P00451 1668-2351” had a percent of 125I-fVIII binding competed by an excess of unlabeled fVIII in experiment [1] of over 90%. This substance also returned a Kd in experiment [2] of 116 nM. The substance further registered an IC50 (read off the curve) in experiment [3] of 100 nM.
